± gives the standard error. This sample holds only a part of the variants without activity.
B1: glmS ribozyme (parent)
chain: AUAAAAGCGCCAGAACUACAGAAAUGUAGUUGACGAGGAGGAGGUUUAUCGAAUUUUCGGCGGAUGCCUCCAAA

Key:
Conditions in all cases: with glucosamine-6-phosphate
glucosamine-6-phosphate [1] = variants of: B1; test: self-cleavage kobs at 160 uM GlcN6P; higher = faster cleavage; RNA array
Procedure, shortened: (§1)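 A hybridised Cy3 probe tracked barcoded ribozyme variants, transcribed in situ by E. coli RNA polymerase on sequenced MiSeq chips, at 37 °C. The variants received 40 μM to 10 mM glucosamine-6-phosphate in HEPES/KCl/Mg(OAc)2 buffer. kobs came from decay fits and kcat and KM from weighted Michaelis–Menten fits.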

glucosamine-6-phosphate [2] = variants of: B1; test: self-cleavage kobs at 2500 uM GlcN6P; higher = faster cleavage; RNA array
Procedure, shortened: as §1

glucosamine-6-phosphate [3] = variants of: B1; test: self-cleavage kobs at 10000 uM GlcN6P; higher = faster cleavage; RNA array
Procedure, shortened: as §1

glucosamine-6-phosphate [4] = variants of: B1; test: self-cleavage kobs at 640 uM GlcN6P; higher = faster cleavage; RNA array
Procedure, shortened: as §1

Row | Variant | self-cleavage kobs at 160 uM GlcN6P (glucosamine-6-phosphate [1]) [s⁻¹] | self-cleavage kobs at 2500 uM GlcN6P (glucosamine-6-phosphate [2]) [s⁻¹] | self-cleavage kobs at 10000 uM GlcN6P (glucosamine-6-phosphate [3]) [s⁻¹] | self-cleavage kobs at 640 uM GlcN6P (glucosamine-6-phosphate [4]) [s⁻¹]
1 | G35A C58U | < 1e-05 | < 1e-05 | < 1e-05 | –
2 | G41C G66U | < 1e-05 | – | – | < 1e-05
3 | C34G C50G | 5.61e-05 ± 2.4e-05 | 9.6e-05 ± 3.6e-05 | – | 0.00014 ± 5.7e-05
4 | A33C U57G | < 1e-05 | – | – | –
5 | C34A A39C U49A U55C | < 1e-05 | – | – | –
6 | A33C C70A | < 1e-05 | – | < 1e-05 | < 1e-05
7 | G40C G60U C67G | < 1e-05 | < 1e-05 | – | < 1e-05
8 | G43C G60C | < 1e-05 | < 1e-05 | – | < 1e-05
9 | A42G G51C G60U | < 1e-05 | – | – | –
10 | G38U G41A C58A C61A | < 1e-05 | – | – | < 1e-05
11 | G44U U65G C70G | < 1e-05 | < 1e-05 | – | –
12 | G43A U54C U69G | < 1e-05 | – | < 1e-05 | < 1e-05
13 | G43C U56A | < 1e-05 | < 1e-05 | < 1e-05 | < 1e-05
14 | G43C U45A C67U | 0.000282 ± 9.2e-05 | 0.00269 ± 0.00071 | – | 0.000977 ± 0.00034
15 | G44U G59A G60A | < 1e-05 | < 1e-05 | – | < 1e-05
16 | G41A A53U U54G | 0.000102 ± 3.4e-05 | 0.000742 ± 0.0002 | 0.000285 ± 7.8e-05 | 0.000241 ± 8.7e-05
17 | G35C U54C G63A | < 1e-05 | < 1e-05 | – | –
18 | A39G G43U C58A | < 1e-05 | < 1e-05 | – | < 1e-05
19 | C34U C70G | 0.000827 ± 0.0004 | – | – | –
20 | A33G A48C A52G | < 1e-05 | – | – | < 1e-05
21 | G38U A52U | < 1e-05 | – | < 1e-05 | < 1e-05
22 | G35C G40A A42U | < 1e-05 | < 1e-05 | – | < 1e-05
23 | G44U U49A U54A G62U | < 1e-05 | < 1e-05 | – | < 1e-05
24 | G35C U47G U55G | < 1e-05 | – | < 1e-05 | –
25 | G44C G51U C68G | < 1e-05 | – | – | –
26 | U45C A64U | < 1e-05 | – | – | < 1e-05
27 | G40C A64U | < 1e-05 | – | – | < 1e-05

Row | Variant | self-cleavage kobs at 160 uM GlcN6P (glucosamine-6-phosphate [1]) [s⁻¹] | self-cleavage kobs at 2500 uM GlcN6P (glucosamine-6-phosphate [2]) [s⁻¹] | self-cleavage kobs at 10000 uM GlcN6P (glucosamine-6-phosphate [3]) [s⁻¹] | self-cleavage kobs at 640 uM GlcN6P (glucosamine-6-phosphate [4]) [s⁻¹]
28 | G41A G62C | < 1e-05 | < 1e-05 | – | < 1e-05
29 | G40U C67G | < 1e-05 | – | – | < 1e-05
30 | G41C A52C C68U | < 1e-05 | – | – | –
31 | A39C A48G | < 1e-05 | – | 3.36e-05 ± 1.2e-05 | –
32 | G43A C61G C67U C70U | < 1e-05 | – | – | < 1e-05
33 | G35C U65C G66A | < 1e-05 | < 1e-05 | – | < 1e-05
34 | G40C G59U | < 1e-05 | < 1e-05 | – | < 1e-05
35 | A42C U69A | 5.29e-05 ± 2.2e-05 | 0.000182 ± 4.1e-05 | 0.0008 ± 0.00018 | 0.000125 ± 3.8e-05
36 | A33G G41A C70A | < 1e-05 | – | < 1e-05 | < 1e-05
37 | G40A G44U C61A | < 1e-05 | – | < 1e-05 | < 1e-05
38 | A33U C68G C71A | < 1e-05 | – | – | < 1e-05
39 | G44U U47C | < 1e-05 | – | – | –
40 | G35U A53C | < 1e-05 | < 1e-05 | < 1e-05 | –
41 | A39C C61U C71U | < 1e-05 | < 1e-05 | – | < 1e-05
42 | G37C G43C U47C | < 1e-05 | < 1e-05 | – | –
43 | A33U A64G | < 1e-05 | – | 6.18e-05 ± 1.1e-05 | –
44 | A42U A52C C67A | < 1e-05 | – | – | –
45 | A36G G38U | < 1e-05 | – | < 1e-05 | –
46 | A39G G41A G59U G60U | < 1e-05 | – | – | –
47 | G37U C70U C71A | < 1e-05 | – | – | –
48 | G43U C61G C71U | < 1e-05 | – | – | –
49 | G35A G38A A39G G63C C67U | < 1e-05 | – | – | –
50 | G37U G44A A52U A53U | < 1e-05 | < 1e-05 | – | < 1e-05
51 | G43A U55G | < 1e-05 | 4.42e-05 ± 1.1e-05 | 5.21e-05 ± 7.9e-06 | –
52 | A33C C50A C71G | < 1e-05 | – | – | –
53 | G40C U56A | 0.000154 ± 3.3e-05 | 0.00115 ± 0.00026 | – | 0.000308 ± 6.3e-05
54 | G38U A42U G62U | < 1e-05 | < 1e-05 | – | < 1e-05
